Results as given in patent US20220025381A1.
Blank lines part the entries; values can stand above or below the binder they belong to.

Key:
Experiment in all cases: cell-based or functional assay
[1] = target: T1, CD244 PV1-GAI-L1-RfxCas13d-560C-NLS-BGHpA
T1 sequence: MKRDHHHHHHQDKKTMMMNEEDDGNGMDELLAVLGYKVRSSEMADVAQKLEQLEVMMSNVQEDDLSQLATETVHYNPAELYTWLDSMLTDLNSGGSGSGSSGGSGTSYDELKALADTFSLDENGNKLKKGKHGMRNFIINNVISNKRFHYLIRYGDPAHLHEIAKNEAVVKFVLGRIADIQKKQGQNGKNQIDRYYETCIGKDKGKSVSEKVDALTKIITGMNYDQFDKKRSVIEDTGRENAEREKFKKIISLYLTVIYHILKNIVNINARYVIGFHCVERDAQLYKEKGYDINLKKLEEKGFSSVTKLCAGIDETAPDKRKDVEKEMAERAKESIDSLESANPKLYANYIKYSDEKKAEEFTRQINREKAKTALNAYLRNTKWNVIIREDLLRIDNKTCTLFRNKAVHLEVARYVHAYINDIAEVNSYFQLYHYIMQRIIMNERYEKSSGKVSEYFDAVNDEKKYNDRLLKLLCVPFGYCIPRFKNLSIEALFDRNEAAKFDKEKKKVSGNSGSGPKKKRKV

[2] = target: CD92 PV1-CaffVHH-L1-iCre-271C-NLS-BGHpA
[3] = target: T2, CD246 PV1-GAI-L1-RfxCas13d-566C-NLS-BGHpA
T2 sequence: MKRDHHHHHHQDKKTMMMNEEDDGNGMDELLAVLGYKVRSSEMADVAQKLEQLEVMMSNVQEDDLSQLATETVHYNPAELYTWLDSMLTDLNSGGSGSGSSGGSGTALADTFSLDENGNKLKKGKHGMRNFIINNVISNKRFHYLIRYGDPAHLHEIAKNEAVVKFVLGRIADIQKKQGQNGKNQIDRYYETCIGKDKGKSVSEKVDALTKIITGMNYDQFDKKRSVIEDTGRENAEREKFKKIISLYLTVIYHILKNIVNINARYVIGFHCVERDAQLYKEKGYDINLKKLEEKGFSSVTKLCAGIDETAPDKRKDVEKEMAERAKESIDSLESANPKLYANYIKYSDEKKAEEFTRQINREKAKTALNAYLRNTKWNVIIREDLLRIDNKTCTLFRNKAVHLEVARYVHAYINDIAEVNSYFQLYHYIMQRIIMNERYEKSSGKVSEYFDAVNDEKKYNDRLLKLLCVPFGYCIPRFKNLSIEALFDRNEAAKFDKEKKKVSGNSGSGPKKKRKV

[4] = target: CD176 PV1-tandem CaffVHH-L1-iCre-271C-NLS-BGHpA
[5] = target: T3, CD374 PV1-RfxCas13d-560C-NLS-BGHpA
T3 sequence: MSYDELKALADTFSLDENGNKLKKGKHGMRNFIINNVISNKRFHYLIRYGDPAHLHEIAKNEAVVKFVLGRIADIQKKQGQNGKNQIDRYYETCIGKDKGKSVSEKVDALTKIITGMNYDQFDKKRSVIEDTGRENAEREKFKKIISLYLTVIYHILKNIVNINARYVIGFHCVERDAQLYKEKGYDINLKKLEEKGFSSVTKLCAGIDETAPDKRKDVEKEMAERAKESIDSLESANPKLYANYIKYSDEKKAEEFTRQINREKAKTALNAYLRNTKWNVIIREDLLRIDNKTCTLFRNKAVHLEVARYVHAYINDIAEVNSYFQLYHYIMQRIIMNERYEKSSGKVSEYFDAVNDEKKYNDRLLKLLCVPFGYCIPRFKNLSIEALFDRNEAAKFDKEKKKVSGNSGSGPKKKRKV

Sequence of CD92 PV1-CaffVHH-L1-iCre-271C-NLS-BGHpA (chain, as listed by the source): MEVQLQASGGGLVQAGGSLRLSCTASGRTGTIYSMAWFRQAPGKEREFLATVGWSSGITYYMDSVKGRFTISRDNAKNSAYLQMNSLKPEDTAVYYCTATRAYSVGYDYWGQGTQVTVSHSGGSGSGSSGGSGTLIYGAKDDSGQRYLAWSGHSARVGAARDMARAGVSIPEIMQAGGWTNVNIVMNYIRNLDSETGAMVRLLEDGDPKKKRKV
Sequence of CD176 PV1-tandem CaffVHH-L1-iCre-271C-NLS-BGHpA (chain, as listed by the source): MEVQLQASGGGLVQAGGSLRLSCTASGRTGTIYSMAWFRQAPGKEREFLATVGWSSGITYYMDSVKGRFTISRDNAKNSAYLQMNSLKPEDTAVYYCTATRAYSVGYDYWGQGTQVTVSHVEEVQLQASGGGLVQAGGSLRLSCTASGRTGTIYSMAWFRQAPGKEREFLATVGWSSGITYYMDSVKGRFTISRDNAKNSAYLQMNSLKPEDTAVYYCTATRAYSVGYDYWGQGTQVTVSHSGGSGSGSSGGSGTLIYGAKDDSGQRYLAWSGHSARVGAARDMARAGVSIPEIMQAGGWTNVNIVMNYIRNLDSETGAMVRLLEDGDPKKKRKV

basal knockdown of mCherry induced by gRNA, no gibberellin [1]: 10 to 20%
drug-induced knockdown of mCherry with gRNA [1]: > 75%
B1: CD243 PV1-RfxCas13d-N559-L1-GID-NLS-BGHpA (protein)
chain: MIEKKKSFAKGMGVKSTLVSGSKVYMTTFAEGSDARLEKIVEGDSIRSVNEGEAFSAEMADKNAGYKIGNAKFSHPKGYAVVANNPLYTGPVQQDMLGLKETLEKRYFGESADGNDNICIQVIHNILDIEKILAEYITNAAYAVNNISGLDKDIIGFGKFSTVYTYDEFKDPEHHRAAFNNNDKLINAIKAQYDEFDNFLDNPRLGYFGQAFFSKEGRNYIINYGNECYDILALLSGLRHWVVHNNEEESRISRTWLYNLDKNLDNEYISTLNYLYDRITNELTNSFSKNSAANVNYIAETLGINPAEFAEQYFRFSIMKEQKNLGFNITKLREVMLDRKDMSEIRKNHKVFDSIRTKVYTMMDFVIYRYYIEEDAKVAAANKSLPDNEKSLSEKDIFVINLRGSFNDDQKDALYYDEANRIWRKLENIMHNIKEFRGNKTREYKKKDAPRLPRILPAGRDVSAFSKLMYALTMFLDGKEINDLLTTLINKFDNIQSFLKVMPLIGVNAKFVEEYAFFKDSAKIADELRLIKSFARMGEPIADARRAMYIDAIRILGTNLSGGSGSGSSGGSGTMAASDEVNLIESRTVVPLNTWVLISNFKVAYNILRRPDGTFNRHLAEYLDRKVTANANPVDGVFSFDVLIDRRINLLSRVYRPAYADQEQPPSILDLEKPVDGDIVPVILFFHGGSFAHSSANSAIYDTLCRRLVGLCKCVVVSVNYRRAPENPYPCAYDDGWIALNWVNSRSWLKSKKDSKVHIFLAGDSSGGNIAHNVALRAGESGIDVLGNILLNPMFGGNERTESEKSLDGKYFVTVRDRDWYWKAFLPEGEDREHPACNPFSPRGKSLEGVSFPKSLVVVAGLDLIRDWQLAYAEGLKKAGQEVKLMHLEKATVGFYLLPNNNHFHNVMDEISAFVNAECPKKKRKV

Cre reporter expression, share of transfected cells, 25 uM caffeine for 5 hours (% of transfected cells) [2]: 30
Cre reporter turned on, share of transfected cells, caffeine at least 50 uM, induction at least 5 hours (% of transfected cells) [2]: 38
Cre reporter turned on, share of transfected cells, with caffeine, 48 hours (% of transfected cells) [2]: > 80
caffeine concentration able to turn on Cre activity and generate reporter expression in 48 hours [2]: 0.1 µM caffeine
caffeine concentration at which similar, if not less, recombination efficiency was reached (single CaffVHH) [2]: 500 µM caffeine
B2: CD91 PV1-iCre-N270-L1-CaffVHH-NLS-BGHpA (protein)
chain: MSNLLTVHQNLPALPVDATSDEVRKNLMDMFRDRQAFSEHTWKMLLSVCRSWAAWCKLNNRKWFPAEPEDVRDYLLYLQARGLAVKTIQQHLGQLNMLHRRSGLPRPSDSNAVSLVMRRIRKENVDAGERAKQALAFERTDFDQVRSLMENSDRCQDIRNLAFLGIAYNTLLRIAEIARIRVKDISRTDGGRMLIHIGRTKTLVSTAGVEKALSLGVTKLVERWISVSGVADDPNNYLFCRVRKNGVAAPSATSQLSTRALEGIFEATHRSGGSGSGSSGGSGTMEVQLQASGGGLVQAGGSLRLSCTASGRTGTIYSMAWFRQAPGKEREFLATVGWSSGITYYMDSVKGRFTISRDNAKNSAYLQMNSLKPEDTAVYYCTATRAYSVGYDYWGQGTQVTVSHPKKKRKV

basal knockdown of mCherry induced by gRNA, no gibberellin [3]: 10 to 20%
drug-induced knockdown of mCherry with gRNA [3]: > 75%
B3: CD245 PV1-RfxCas13d-N565-L1-GID-NLS-BGHpA (protein)
chain: MIEKKKSFAKGMGVKSTLVSGSKVYMTTFAEGSDARLEKIVEGDSIRSVNEGEAFSAEMADKNAGYKIGNAKFSHPKGYAVVANNPLYTGPVQQDMLGLKETLEKRYFGESADGNDNICIQVIHNILDIEKILAEYITNAAYAVNNISGLDKDIIGFGKFSTVYTYDEFKDPEHHRAAFNNNDKLINAIKAQYDEFDNFLDNPRLGYFGQAFFSKEGRNYIINYGNECYDILALLSGLRHWVVHNNEEESRISRTWLYNLDKNLDNEYISTLNYLYDRITNELTNSFSKNSAANVNYIAETLGINPAEFAEQYFRFSIMKEQKNLGFNITKLREVMLDRKDMSEIRKNHKVFDSIRTKVYTMMDFVIYRYYIEEDAKVAAANKSLPDNEKSLSEKDIFVINLRGSFNDDQKDALYYDEANRIWRKLENIMHNIKEFRGNKTREYKKKDAPRLPRILPAGRDVSAFSKLMYALTMFLDGKEINDLLTTLINKFDNIQSFLKVMPLIGVNAKFVEEYAFFKDSAKIADELRLIKSFARMGEPIADARRAMYIDAIRILGTNLSYDELKSGGSGSGSSGGSGTMAASDEVNLIESRTVVPLNTWVLISNFKVAYNILRRPDGTFNRHLAEYLDRKVTANANPVDGVFSFDVLIDRRINLLSRVYRPAYADQEQPPSILDLEKPVDGDIVPVILFFHGGSFAHSSANSAIYDTLCRRLVGLCKCVVVSVNYRRAPENPYPCAYDDGWIALNWVNSRSWLKSKKDSKVHIFLAGDSSGGNIAHNVALRAGESGIDVLGNILLNPMFGGNERTESEKSLDGKYFVTVRDRDWYWKAFLPEGEDREHPACNPFSPRGKSLEGVSFPKSLVVVAGLDLIRDWQLAYAEGLKKAGQEVKLMHLEKATVGFYLLPNNNHFHNVMDEISAFVNAECPKKKRKV

caffeine concentration at maximum recombination efficiency [4]: 20 µM caffeine
recombination against the single CaffVHH version, same induction conditions [4]: < 13 fold
B4: CD175 PV1-iCre-N270-L1-tandem CaffVHH-NLS-BGHpA (protein)
chain: MSNLLTVHQNLPALPVDATSDEVRKNLMDMFRDRQAFSEHTWKMLLSVCRSWAAWCKLNNRKWFPAEPEDVRDYLLYLQARGLAVKTIQQHLGQLNMLHRRSGLPRPSDSNAVSLVMRRIRKENVDAGERAKQALAFERTDFDQVRSLMENSDRCQDIRNLAFLGIAYNTLLRIAEIARIRVKDISRTDGGRMLIHIGRTKTLVSTAGVEKALSLGVTKLVERWISVSGVADDPNNYLFCRVRKNGVAAPSATSQLSTRALEGIFEATHRSGGSGSGSSGGSGTMEVQLQASGGGLVQAGGSLRLSCTASGRTGTIYSMAWFRQAPGKEREFLATVGWSSGITYYMDSVKGRFTISRDNAKNSAYLQMNSLKPEDTAVYYCTATRAYSVGYDYWGQGTQVTVSHVEEVQLQASGGGLVQAGGSLRLSCTASGRTGTIYSMAWFRQAPGKEREFLATVGWSSGITYYMDSVKGRFTISRDNAKNSAYLQMNSLKPEDTAVYYCTATRAYSVGYDYWGQGTQVTVSHPKKKRKV

gRNA induced knockdown of mCherry without CID domains [5]: < 80%
B5: CD373 PV1-RfxCas13d-N559-NLS-BGHpA (protein)
chain: MIEKKKSFAKGMGVKSTLVSGSKVYMTTFAEGSDARLEKIVEGDSIRSVNEGEAFSAEMADKNAGYKIGNAKFSHPKGYAVVANNPLYTGPVQQDMLGLKETLEKRYFGESADGNDNICIQVIHNILDIEKILAEYITNAAYAVNNISGLDKDIIGFGKFSTVYTYDEFKDPEHHRAAFNNNDKLINAIKAQYDEFDNFLDNPRLGYFGQAFFSKEGRNYIINYGNECYDILALLSGLRHWVVHNNEEESRISRTWLYNLDKNLDNEYISTLNYLYDRITNELTNSFSKNSAANVNYIAETLGINPAEFAEQYFRFSIMKEQKNLGFNITKLREVMLDRKDMSEIRKNHKVFDSIRTKVYTMMDFVIYRYYIEEDAKVAAANKSLPDNEKSLSEKDIFVINLRGSFNDDQKDALYYDEANRIWRKLENIMHNIKEFRGNKTREYKKKDAPRLPRILPAGRDVSAFSKLMYALTMFLDGKEINDLLTTLINKFDNIQSFLKVMPLIGVNAKFVEEYAFFKDSAKIADELRLIKSFARMGEPIADARRAMYIDAIRILGTNLPKKKRKV
